Data reported in paper PMC9225624 (Autophagy, 2021).
Where a chain is given by its changes, count along the chain named. Where two headings read alike, the source gives them in different places.

Key:
[1] = target: T1, GST-ATG8f (Arabidopsis thaliana, UniProt Q8VYK7 1-117); assay: pull-down
T1 sequence (looked up): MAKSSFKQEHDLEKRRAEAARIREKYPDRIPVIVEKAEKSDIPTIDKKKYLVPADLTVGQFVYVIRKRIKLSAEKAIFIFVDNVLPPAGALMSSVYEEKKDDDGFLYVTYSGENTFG

[2] = target: T2, GST-ATG8i (Arabidopsis thaliana, UniProt Q9LRP7 1-115); assay: pull-down
T2 sequence (looked up): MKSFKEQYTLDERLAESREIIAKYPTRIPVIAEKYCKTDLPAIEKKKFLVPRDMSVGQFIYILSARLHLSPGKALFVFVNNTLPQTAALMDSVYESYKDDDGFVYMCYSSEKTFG

[3] = target: T3, GST-ATG8c (Arabidopsis thaliana, UniProt Q8S927 1-119); assay: pull-down
T3 sequence (looked up): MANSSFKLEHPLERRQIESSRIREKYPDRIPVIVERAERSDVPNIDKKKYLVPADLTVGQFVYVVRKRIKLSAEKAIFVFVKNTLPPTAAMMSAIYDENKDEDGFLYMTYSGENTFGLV

[4] = target: T4, GST-ATG8d (Arabidopsis thaliana, UniProt Q9SL04 1-120); assay: pull-down
T4 sequence (looked up): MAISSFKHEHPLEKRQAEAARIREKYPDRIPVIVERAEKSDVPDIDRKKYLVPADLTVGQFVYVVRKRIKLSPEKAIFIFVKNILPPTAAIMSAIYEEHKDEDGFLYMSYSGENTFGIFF

[5] = target: T5, GST-ATG8a (Arabidopsis thaliana, UniProt Q8LEM4 1-117); assay: pull-down
T5 sequence (looked up): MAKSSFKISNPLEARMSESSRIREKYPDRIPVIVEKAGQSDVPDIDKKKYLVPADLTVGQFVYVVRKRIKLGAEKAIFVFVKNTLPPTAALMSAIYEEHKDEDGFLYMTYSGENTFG

[6] = target: T6, GST-ATG8b (Arabidopsis thaliana, UniProt Q9XEB5 1-117); assay: pull-down
T6 sequence (looked up): T5 sequence (looked up) with A2E, S4N, I8L, A14M, S17A, S20T, E24A, D28E, I30V, V58I

[7] = target: T7, GST-ATG8g (Arabidopsis thaliana, UniProt Q9LZZ9 1-117); assay: pull-down
T7 sequence (looked up): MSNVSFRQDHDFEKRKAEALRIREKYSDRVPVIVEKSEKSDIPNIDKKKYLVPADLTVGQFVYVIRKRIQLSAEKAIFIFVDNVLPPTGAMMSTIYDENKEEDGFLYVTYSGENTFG

[8] = target: T8, GST-ATG8e (Arabidopsis thaliana, UniProt Q8S926 1-118); assay: pull-down
T8 sequence (looked up): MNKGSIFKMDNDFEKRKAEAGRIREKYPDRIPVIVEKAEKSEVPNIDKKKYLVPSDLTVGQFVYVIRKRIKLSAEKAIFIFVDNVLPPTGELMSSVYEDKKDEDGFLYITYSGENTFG

[9] = target: T9, GST-ATG8h (Arabidopsis thaliana, UniProt Q8S925 1-119); assay: pull-down
T9 sequence (looked up): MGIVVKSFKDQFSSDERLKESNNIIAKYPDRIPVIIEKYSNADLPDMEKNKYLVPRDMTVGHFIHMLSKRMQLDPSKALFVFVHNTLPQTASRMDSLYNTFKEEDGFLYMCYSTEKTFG

[10] = target: T10, GST-ATG8f R29E (Arabidopsis thaliana, UniProt Q8VYK7 1-117, R29E); assay: pull-down
T10 sequence (looked up): T1 sequence (looked up) with R29E

[11] = target: T11, GST-ATG8f Y26E (Arabidopsis thaliana, UniProt Q8VYK7 1-117, Y26E); assay: pull-down
T11 sequence (looked up): T1 sequence (looked up) with Y26E

[12] = target: T12, GST-ATG8f K47E (Arabidopsis thaliana, UniProt Q8VYK7 1-117, K47E); assay: pull-down
T12 sequence (looked up): T1 sequence (looked up) with K47E

[13] = target: T13, Arabidopsis ATG8f (tag-free) (Arabidopsis thaliana, UniProt Q8VYK7 1-117); assay: SEC
T13 sequence: T1 sequence (looked up)

[14] = target: T14, GST-ATG8f (Y26E R29E) (Arabidopsis thaliana, UniProt Q8VYK7 1-117, Y26E | R29E); assay: pull-down
T14 sequence (looked up): T1 sequence (looked up) with Y26E, R29E

[15] = target: T13, Arabidopsis ATG8f (tag-free); assay: pull-down
[16] = target: T1, GST-ATG8f; assay: pull-down; remark: listed apart in the source

Measured: binding result

B1: SH3 domain of SH3P2, SH3P2 (279-368) (domain or fragment, Arabidopsis thaliana, UniProt Q8VWF1 279-368, looked up)
chain: SYEEANGVFASQMHDTSTDSMGYFLGEVLFPYHGVTDVELSLSTGEYVVVRKVTGSGWAEGECKGKAGWFPYGYIERRERVLASKVSEVF
binds: [1] | [2] | [3] | [4] | [5] | [6] | [7] | [8] | [9] | [10] | [11] | [12] | [13] | [14]

B2: NBR1 AIM peptide (657-667 aa) (peptide)
peptide: GVSEWDPILEE
binds: [15]

B3: UBA domain (619-704 aa) of NBR1 (domain or fragment, Arabidopsis thaliana, UniProt Q9SB64 619-704, looked up)
chain: EITMLKELEEMGFKEIDLNKEILRDNEYNLEQSVDALCGVSEWDPILEELQEMGFCDDVTNKRLLKKNNGSIKGVVMDLLTGEKEA
binds: [16] | [13]
